From publication PMC11740656 come the findings set out here.

Values joined by “and” are separate entries in the source; they are usually repeats but may differ in a detail not shown here. Identical values can stand only once.

For this assay, the target named is human CLDN4 (YFP- or CFP-tagged) (human). The assay is described as follows: FRET or BRET. (In general: In BRET a luciferase serves as donor, and the signal depends on an acceptor being close.)

As to “human CLDN8 (YFP- or CFP-tagged) (natural protein)”, the stoichiometry N (hCLDN8:hCLDN4) is 0.5 and 0.25.
